In patent US20190112387A1 (ISTITUTO BIOCHIMICO ITALIANO GIOVANNI LORENZINI S P A, published 2019):

B1: mAb W6/800 (antibody, V domains shown)
VH: QVQLQQSGAELMKPGASVKISCKATGYTFSNYWIEWVKQRPGHGLEWIGEILPGSGSTNYNEKLKGKATFTADTSSNTAYMQLSSLTSEDSGVYYCARGGGNYPYYFDYWGQGTTVTVSS
VL: IELMTQSHKFMSTSVGDRVSITCKASQDVGTAVAWYQQKPGQSPKLLIYWASTRHTGVPDRFTGSGSGTDFTLTISNVQSEDLADYFCQQYSSYRTFGAGTKLE
notes: Murine IgG2a purified from hybridoma cultures; they are assigned here by order and by likeness to the humanized VH and VL; also called murine W6/800; parental murine antibody
B2: humanized W6/800 antibody huW6/800 (antibody, V domains shown)
VH: QVQLVQSGAEVKKPGASVKISCKASGYTFSNYWIEWVRQAPGQGLEWMGEILPGSGSTNYNEKLKGRVTSTRDTSISTAYMELSRLRSDDTGVYYCARGGGNYPYYFDYWGQGTTVTVSS
VL: DIQMTQSPSTLSASVGDRVTITCKASQDVGTAVAWYQQKPGKAPKLLIYWASTRHTGVPSRFSGSGSGTEFTLTISSLQPDDFADYFCQQYSSYRTFGAGTKLEIK
notes: also called humanized antibody

Target: T1, human ERBB2 receptor (human, UniProt P04626 23-1255)
T1 construct: whole, on cells; Presented on human breast carcinoma cell lines with different ERBB2 levels; also called HER2; Neu-Erb
Assay: flow cytometry on SK-BR-3 cells (FIG. 7 legend)
Procedure: Humanized heavy SEQ NO.1 and light chains SEQ. NO.2 or SEQ. […] The cells were cultured in Erlenmeyer flask in incubator at 37° C., 5% CO₂ on a shaker at 120 rpm for at least 14 days. The surnatants were purified through standard protein A resins. […] NO.1 and SEQ.

binding result	Binder
binds	B1
binds	B2
